In a protein production outcome set (Wang et al. 2014) one finds protein production data, which are given here for 25 sequences.

The series can be described thus: label from the status in PepcDB records.
“MGHHHHHHSHMGKGTFVYRTTITSPHEEVWAFFSSPTNLQTLTKIPKVVLDSTSETTQGSEIEMKLFVLGIPFQWKAYIEAYNPPFSFTDVAIKMPFPIVYWRHTHRFTTEGERTVMIDEIQYEIKMANKLVIFFLRRMFRARESALHRYFQS”: the protein production result is on record as “not failed”.

For “MGHHHHHHSHMKEDQKNKIPEDILKQLLSVDPETVYASGYASWQEGDYSRAVIDFSWLVMAQPWSWRAHIALAGTWMMLKEYTTAINFYGHALMLDASHPEPVYQTGVCLKMMGEPGLAREAFQTAIKMSYADASWSEIRQNAQKMVDTLIA”, the protein production entry was “failed”.

Take “MGHHHHHHSHMKLVTRSCDPGEKLDSKIGVLIGKGLHEFDSLKDPEVNEFRRKMRKFSEEKILSLVGLSWMDWLKQTYPPEHEPSIPENLEDKLYGGKLIVAVHFENCQDVFSFQVSPNMNPIKVNELAIQKRLTIHGKEDEVSPYDYVLQVSGRVEYVFGDHPLIQFQYIRNCVMNRALPHFILVECCKIKK”: the protein production result was “failed”.

For “MGHHHHHHSHMKMEHQNKRSPLHAAAEAGHVDICHMLVQAGANIDTCSEDQRTPLMEAAENNHLEAVKYLIKAGALVDPKDAEGSTCLHLAAKKGHYEVVQYLLSNGQMDVNCQDDGGWTPMIWATEYKHVDLVKLLLSKGSDINIRDNEENICLHWAAFSGCVDIAEILLAAKCDLHAVNIHGDSPLHIAARENRYDCVVLFLSRDSDVTLKNKEGETPLQCASLNSQV”, the protein production entry is listed as “failed”.

As for “MGHHHHHHSHMLVDNLYRVVSNQKDAAVIRVHLEVNASHEIFKGHFPEVPVLPGVCMVQCIKELIEESLLVKTQIDKGDMIKFLSMLNPVESNSIQAEISIKEKTETRIVFQATLKNEDRFLLKYSGSLVVLN”, the protein production entry is reported as “failed”.

For “MGHHHHHHSHMPRGPAGEAGASPPVRRVRVVKQEAGGLGISIKGGRENRMPILISKIFPGLAADQSRALRLGDAILSVNGTDLRQATHDQAVQALKRAGKEVLLEVKFIREVT”, the protein production entry is reported as “failed”.

Turning to “MGHHHHHHSHMSSRGHSTLPRTLMAPRMISEGDIGGIAQITSSLFLGRGSVASNRHLLQARGITCIVNATIEIPNFNWPQFEYVKVPLADMPHAPIGLYFDTVADKIHSVSRKHGATLVHCAAGVSRSATLCIAYLMKFHNVCLLEAYNWVKARRPVIRPNVGFWRQLIDYERQLFGKSTVKMVQTPYGIVPDVYEKESRHLMPYWGI”, the protein production entry was “failed”.

Regarding “MGHHHHHHSHMSYARVRAVVMTRDDSSGGWLPLGGSGLSSVTVFKVPHQEENGCADFFIRGERLRDKMVVLECMLKKDLIYNKVTPTFHHWKIDDKKFGLTFQSPADARAFDRGIRRAIEDISQGCPESK”, the protein production entry was “not failed”.

For “MGHHHHHHSHMTKIIPVASGKGGVGKTSFVANVGYKLSSLGKTVILVDLDLGGSNLHTCLGVKNKGVGIGSFINKKSKSFSDLVCKTSYDKLYLIPGDALYTGTANLPFSIKKKIIESIQKDLIADFIFLDLGSGTSYNTIDFYLASYSGVIVTIPETPSILNAYSFLKNALYRLLYLGFP”, the protein production entry is on record as “failed”.

For “MGHHHHHHSHMTKLPPIEQLLPHDKPMILVDRAMDIQQDTIHCQVDIAEHNPFFDSASQTVPAYVGIEFMAQSVAAWSGYHALMKEQAPPIGFLLGSRRYTSECDAFSRGQMLDVYAEKVMEDNGMAVFSARIELQGTVVATCQLNVYVPSEEKLQEMKIRSQQ”, the protein production result is reported as “not failed”.

Regarding “MGHHHHHHSHNSSSCPEIQGFLHVKELGKKSWKKLYVCLRRSGLYCSTKGTSKEPRHLQLLADLEDSNIFSLIAGRKQYNAPTDHGLCIKPNKVRNETKELRLLCAEDEQTRTCWMTAFRLLKYGMLLYQNYRIPQQRKALLSPFSTPVRSVSENSLVAMDFSGQTGRVIENPAEAQSAALEEGHAWRKRSTRMNILGSQSPLHPSTLSTVIHRTQ”, the protein production result is listed as “failed”.

For the sequence “MGHHHHHHSHPAEYNISPETRRAQAERLAIRAQLKREYLLQYNDPNRRGLIENPALLRWAYARTINVYPNFRPTPKNSLMGALCGFGPLIFIYYIIKTERDRKEKLIQEGKLDRTFHLSY”, the protein production entry was “failed”.

With “MGHHHHHHSHRPESFFQQSFQRLSRLGHGSYGEVFKVRSKEDGRLYAVKRSMSPFRGPKDRARKLAEVGSHEKVGQHPCCVRLEQAWEEGGILYLQTELCGPSLQQHCEAWGASLPEAQVWGYLRDTLLALAHLHSQGLVHLDVKPANIFLGPRGRCKLGDFGLLVELGTAGAGEVQEGDPRYMAPELLQGSYGTAADVFSLGLTILEVACNMELPHGGEGWQQLRQGYLPPEFTAGLSSELRSVLVMMLEPDPKLRATAEALLALPVLRQPRAWGVLWCMAAEALSRG”, the protein production entry was “failed”.

As to “MGHHKAMPYADVAAFIIELRKREAVAATALEFTILTAARSGETLGAKWHEIDWKDKIWTVPAERMKAAREHRVPLSSRTITILKKLAEFGSDENSFVFPGQKPGKPLSVMAMDMVLRRMEVDVTVHGFRSSFRDWCGEVSNFPRDVAEAALAHVVGDKTERAYRRGDALEKRRKLMAAWEKFCIAEIKKNPLEHHHHHH”, the protein production entry is recorded as “failed”.

As for “MGIENFTAKIVGLSIVSLLVVLMFLYKLIYIIPLIFIVLLVFQSEKKIFAFLSKNTKQIQPYSIEDGVFYNEKNASAVLIIDDIQMDYKDFTNSNLRSFISSFHKILDIAKDINIVLKRESLDKNVYIESLSQKIQALRIMIDSDPSNEKAKRKLELMETIISRIESGENPFRYEMYIIINSRDKNSALSTASMIRQGLEGLGIKTRLATLHEIQKLVRDFFHSKLNLNKIALPTQIPYLTPISVEKKPKSSIIIDGVLLGKDINNNGLVFWNITKSQNSHLLIVGPTGSGKTEFLIWLSTILNLIYGGTVILFDVKGDIKYRLSMYKVPFQLINPLFYRLGLLDEYDIPIRIKLLQIEKILLNSFRLSKFNSSILYNYLNRLIDISYLKYRIKWKDLEKYLSEIDDVQLKYYLSKLINILSSMEDSELPPLLHGVNENEINLIDLTLIKSEEIKRLIIYTLIQELYNKFSLEKIYDKPRVFLVLDEAWTILKNESEDYPIVADLIKRGRGYGISIIMATQNLEDLGDLANIYLDNIGVSVFMNNGDKKFWEEIRRFVNVDNDTLSNNLIFMNRGEALVRFLGDPRPVIIKLNTLAGSSF”, the protein production entry was “failed”.

For “MGIFERYLSVWVGLSIILGVILGLWQPNIFQLITEFEIAHVNIVVAVFIWVMIYPMMVQIDFSSIQNVGKNPKGLVLTIIINWFVKPFTMAALGWLFFNYLFADLVDPESAQEYIAGMILLGVAPCTAMVFVWSQLTKGDPNYTLVQVSVNDVIMIFAFAPISAFLLGVSDIQVPWETLLISVLLYVLLPLIAGVVTRRMLNKGNDKVDAQKSAEASINADEETNTNTDSTNKSLDNLLATLKPWSVIGLLATVVLLFGFQANTIISEPQTIGLIAIPLMIQTYGIFIIAYLAAKWLKLPHNIAAPACLIGTSNFFELAVAVAISLFGLHSGAALATVVGVLVEVPVMLSLVYFINHTQNWFVEGG”, the protein production result was “failed”.

“MGIKNDLEIRLQKLQQQGNFKNYLEQYPTDASTAAYFLIEIYNDGNIGGRSVIDAGTGNGILACGSYLLGAESVTAFDIDPDAIETAKRNCGGVNFMVADVSEISGKYDTWIMNPPFGSVVKHSDRAFIDKAFETSMWIYSIGNAKARDFLRREFSARGDVFREEKVYITVPRIYRHHSYDRARIEAVIFGVRNHSF”: the protein production entry is listed as “not failed”.

In the case of “MGISPDAASKLYTVKFQPDPIDKKGWSVIDFNNCCTQDGGWYLNMGWGVESLIDNNPGTQWLCRWDVKEPLPYYFVFDMGKEYTLFRFGFANPVAPAAHVWAGTSKAGYVEASIDNENWVKLKDWTSPKIGEPNVNMDVPATQARYIRFVITDTYPTYDGLRVSLGEVYAWGLEHHHHHH”, the protein production result is “not failed”.

“MGISTNHTTFDGLSFKTFLENLASLLHEKPLSTPPCNDRTLLKARDPPSVAFPHHELVKFQDCETTTVFEATSEHLDFKIFKLSSEQIKKLKERASETSNGNVRVTGFNVVTALVWRCKALSVAAEEGEETNLERESTILYAVDIRGRLNPELPPSYTGNAVLTAYAKEKCKALLEEPFGRIVEMVGEGSKRITDEYARSAIDWGELYKGFPHGEVLVSSWWKLGFAEVEYPWGKPKYSCPVVYHRKDIVLLFPDIDGDSKGVYVLAALPSKEMSKFQHWFEDTLC”: the protein production entry is on record as “failed”.

Turning to “MGKEERAKWVNDEYAKAYEKMKSYGEQVKKADKPRVLYLKRSDLTLQGNDNFIKESMELAGADNIAAEAKSITMEEILKLDPEIILLSDFDKFLPQDLYENRIEGQDWSSVSAVVNKRVYKTPVGIYRWDAPGVETPLMMFWLGKMLQPEILEHHHHHH”, the protein production entry is “failed”.

In the case of “MGKEIEIERKTLVSKETFKRLISQLHIGEGDFKLQRNHYFETDDFQLKKQSSALRIREKEAIFTFTLKQPHPAGLLETNQTLSKQEAKLALESAHFPSGEVMDALRDLSIPISQLKHIGTLSTSRAEISYEQGILCLDHSSYLGIEDYEIEFEGTSEEHATVTFQEILKTFSISQVPTENKIQRFFSKKEKN”, the protein production result is listed as “not failed”.

Regarding “MGKGKSAIESQIRMLKLAKEIVEEVASSFPNLEEVYIFGSRARGDYLDTSDIDILFVFKGIKEMNVFDRMYMVSRFIRGNVDYIVLDEGEKDRVKDKVLFWKREKGFVLL”, the protein production result is reported as “not failed”.

On to “MGKNLKGKELGKGLYQRKDGRYEARIFVRGTGKTFSIYGTNLQHLKKERNAYLANVSPGIAGYDPRISVSKWYEKWMLIYVVHSVKATTLSNYVNGFERVREYIGYMRLIEVRPTHILDMIKGLEEEGYARTTVIQSLSVVRQLFKKAYGGKMIPIDPVADIKLPKEEPGEIPDEKIMQEQEDEKCLSIYDTHRFLESCKNTRYYELFFILLHTGLRIGEALALEWCDLDFKHEKLRVYKTLNRVTKYYDLKGNELPERYSTIQITTPKKSASNRKVPLTDAVIAAFMSWKEKQDRDKEKLGKNWGKPNILLKKYPGLIFTTSSGRSYLPSSAQTECRRIVGIVNKHEIALAEKENRDPNLMDVHPHIFRHTFVTRCIQSGMDAATVKKIAGHSDEKMTNYYTHIEEEHIDDEYELYIQKYGTET”, for which the protein production result is listed as “failed”.

With “MGLASMESWIDLLEWPAMLVTVVAAWCIGSHRPGRRMVGFCCFIASNILWSVWGWHAQAWALIVLQLVLCLMNLRGWRKNKRASRKAPSEKVQGGADATPYHLLTSTSRGQPENPS”, the protein production result was “failed”.

With “MGLFTDGFKLLKKASEPLYKTPKSIQETIEIMAVAENGIFEVSKNKYSKCYRFQDINYTTATEDEQIGIFERYCKFLNSLDCNYKITINNKNKNMDELRDKVLIAEKNDGFNNYRRIYNDIIEEKIIEGRQGIEQERYLTITIERKNFEEAKAQFATLEATIHKAFIELGAEIVPLNGNERLKVLYDYYHLGDEGSFDFDIKKAKKVGADFRNDLCNGMVKYFPDHFEDESKFCKALFIKKYPSSLSDRFINEITSLPVHSITSIDVVPVPKDLTTKVLQKKYLGIESDIIKQQRVRNKNNDFSTEISYAKRTEKKEIEEIMDDVRENDQCLFFVGVTIILMAESKKELESVCETVETIGKRNSCTIDTHYLKQREALNTALPIGVRQVETMRTLLTQSLAVLMPFNVQELNDSTGNYYGINQISKNVNIGNRKKLINGNGFVFGVPGSGKSFFCKMEMGSVFLSGDDEIIVIDPMNEYFDIAETYGGTVVNMSTYTDNYVNPLEMDVWSLDPNDSKGMVREKGEFMLGLCEQCIGDSLNSRQKSIIDRCVRKLYIDIARSKEKYIPVMSDFYDILMAQPEDEAKDIALSLELFVNGSLNIFNHQTNVDVDNRFTVYGIRDLGTELSPITMLVMMESIQNRIVENGKRGKATWLYIDEFHVLLNSEYSAKYLQQLWKKVRKQGGLCTGITQNVVDLLQNYTATTMLANSEFVALLKQANTDSSKMAEVIGVSEAQLRFVTNTASGMGLIKCGSVVIPFDNQISKDTDLYKLYNTNIHEIIEMKKHANEKNVNSL”, the protein production entry is “failed”.
